Test [1] has as its target human lipocalin-2/NGAL receptor (hNGAL-R) (human (endogenous in Caco-2 BBE)) (UniProt Q8WUG5).
For test [2] the target is unchanged. Briefly: MST; fixed amounts of colon-like Caco-2 BBE plasma membrane vesicles pre-incubated 5 min at room temperature with varying A488-PC3 (10-1000 nM); 50 mM Tris pH 7.4, 150 mM NaCl, 10 mM MgCl2, 0.05% Tween-20; Hill fit with coefficient 1.0.
Test [3] shares this target. This is another data set of the same source.
Test [4] shares this target. The test can be described thus: MST; as a1 but co-incubated with 500 pM hNGAL as a binding competitor to A488-PC3.
The target in test [5] is hNGAL-R (Homo sapiens) (UniProt Q8WUG5). As to conditions: cited from earlier work.
Chain of hNGAL-R (Homo sapiens) (Q8WUG5 whole entry): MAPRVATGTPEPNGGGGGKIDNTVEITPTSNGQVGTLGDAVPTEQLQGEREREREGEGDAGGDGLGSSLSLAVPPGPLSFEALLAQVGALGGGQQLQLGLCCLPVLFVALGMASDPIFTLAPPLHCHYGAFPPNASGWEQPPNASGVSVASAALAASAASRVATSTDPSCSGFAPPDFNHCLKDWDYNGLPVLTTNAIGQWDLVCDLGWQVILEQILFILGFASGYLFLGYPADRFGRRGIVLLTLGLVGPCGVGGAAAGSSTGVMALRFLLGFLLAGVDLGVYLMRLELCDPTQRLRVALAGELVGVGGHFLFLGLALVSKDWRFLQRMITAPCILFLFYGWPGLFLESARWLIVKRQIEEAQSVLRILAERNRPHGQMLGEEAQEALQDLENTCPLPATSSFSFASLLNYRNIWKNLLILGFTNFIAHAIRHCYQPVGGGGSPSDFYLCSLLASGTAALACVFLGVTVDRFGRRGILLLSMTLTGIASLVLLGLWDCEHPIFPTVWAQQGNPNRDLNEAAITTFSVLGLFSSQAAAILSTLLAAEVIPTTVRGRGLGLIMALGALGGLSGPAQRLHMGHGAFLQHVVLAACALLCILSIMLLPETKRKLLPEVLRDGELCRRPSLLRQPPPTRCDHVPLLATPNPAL

Chain of human lipocalin-2/NGAL receptor (hNGAL-R) (human (endogenous in Caco-2 BBE)) (Q8WUG5 112-649): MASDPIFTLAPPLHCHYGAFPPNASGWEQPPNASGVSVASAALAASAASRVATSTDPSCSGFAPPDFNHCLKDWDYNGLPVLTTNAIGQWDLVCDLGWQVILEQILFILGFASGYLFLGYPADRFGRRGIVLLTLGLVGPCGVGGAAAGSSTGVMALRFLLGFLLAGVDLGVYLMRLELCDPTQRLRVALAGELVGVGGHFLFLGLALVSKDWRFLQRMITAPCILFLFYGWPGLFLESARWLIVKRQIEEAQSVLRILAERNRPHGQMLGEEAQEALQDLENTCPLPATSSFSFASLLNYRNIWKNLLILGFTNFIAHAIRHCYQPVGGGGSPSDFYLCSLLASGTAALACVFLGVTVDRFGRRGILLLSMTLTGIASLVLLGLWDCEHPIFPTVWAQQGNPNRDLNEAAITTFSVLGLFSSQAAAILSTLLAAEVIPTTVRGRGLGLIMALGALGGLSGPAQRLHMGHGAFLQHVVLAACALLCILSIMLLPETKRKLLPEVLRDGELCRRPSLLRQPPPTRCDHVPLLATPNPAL
Chain of Alexa Fluor 546-transferrin from human serum (P02787 20-698): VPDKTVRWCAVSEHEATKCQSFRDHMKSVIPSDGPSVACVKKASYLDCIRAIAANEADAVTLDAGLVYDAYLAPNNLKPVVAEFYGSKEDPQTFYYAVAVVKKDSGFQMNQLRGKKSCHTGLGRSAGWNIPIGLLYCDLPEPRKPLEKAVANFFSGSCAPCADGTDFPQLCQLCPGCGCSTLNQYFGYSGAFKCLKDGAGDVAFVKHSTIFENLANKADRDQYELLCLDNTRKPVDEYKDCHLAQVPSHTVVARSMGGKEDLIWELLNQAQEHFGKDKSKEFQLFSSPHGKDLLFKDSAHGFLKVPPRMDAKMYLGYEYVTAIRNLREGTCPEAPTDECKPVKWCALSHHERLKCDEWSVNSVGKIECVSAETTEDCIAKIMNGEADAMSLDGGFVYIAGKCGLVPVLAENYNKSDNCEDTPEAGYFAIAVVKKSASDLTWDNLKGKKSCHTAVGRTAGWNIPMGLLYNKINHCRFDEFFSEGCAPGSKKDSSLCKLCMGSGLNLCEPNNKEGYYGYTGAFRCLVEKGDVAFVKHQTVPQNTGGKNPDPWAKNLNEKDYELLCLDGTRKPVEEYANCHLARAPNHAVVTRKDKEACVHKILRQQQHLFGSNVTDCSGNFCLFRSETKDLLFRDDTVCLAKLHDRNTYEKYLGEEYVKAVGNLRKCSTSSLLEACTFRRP
Chain of hNGAL (lipocalin-2) (P80188 21-198): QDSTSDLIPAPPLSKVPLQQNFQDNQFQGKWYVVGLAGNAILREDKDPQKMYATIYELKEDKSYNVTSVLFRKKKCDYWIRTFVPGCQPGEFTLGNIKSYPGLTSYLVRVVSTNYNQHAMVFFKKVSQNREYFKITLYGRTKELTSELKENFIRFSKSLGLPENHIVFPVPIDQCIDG
Chain of Alexa Fluor 546-labelled metallothionein (rabbit apo-MT-2) (P18055 whole entry): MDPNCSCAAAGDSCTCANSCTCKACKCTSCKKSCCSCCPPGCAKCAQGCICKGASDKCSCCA

Turning to “Alexa Fluor 488 (A488)-PC3 (phytochelatin PC3) (peptide)”, the inhibition by 500 pM apical hNGAL of the apical decrease of 700 nM A488-PC3 in colon-like Caco-2 BBE Transwell monolayers (AUC over 8 h) in test [1] came to 25%. The same substance yielded an EC50 in test [2] of 18.6 nM. The internalization of A488-PC3 (up to 5.6 µM, 24 h) by colon-like Caco-2 BBE cells, two-site fit, first app KD in test [3] was determined as 90 nM. Moreover, the EC50 with 500 pM hNGAL in test [4] was 225 nM. Regarding “Alexa Fluor 546-labelled metallothionein (rabbit apo-MT-2) (from UniProt P18055 1-62) (natural protein)”, the inhibition by 500 pM apical hNGAL of the apical decrease of 700 nM A546-MT in colon-like Caco-2 BBE Transwell monolayers (AUC over 8 h) in test [1] was found to be 40%. In test [1], “Alexa Fluor 546-transferrin from human serum (from UniProt P02787 20-698) (natural protein)” showed an inhibition by 500 pM apical hNGAL of the apical decrease of 700 nM A546-Tf in colon-like Caco-2 BBE Transwell monolayers (AUC over 8 h) of 25%. In the case of “hNGAL (lipocalin-2) (from UniProt P80188)”, the Kd in test [5] was 0.092 nM.

The EC50 is the concentration that produces a half-maximal response. The low end stands for an effect from little substance, the high end for a need for much substance. One may read the Kd as the free concentration of one partner at which half of the binding sites on the other are occupied at equilibrium, for simple one-to-one binding.
